The assay has as its target 4-1BB receptor (human) (UniProt Q07011). Briefly: ELISA; antigen (4-1BB 0.5 µg/mL in carbonate buffer; BSA or S100P for cross-reactivity) adsorbed on the plate, 37 °C 1 h; blocked with 1% milk powder; culture fluid with VHH mixed 1:1 with 2% milk powder, 1 h 37 °C; detected by 9E10 anti-myc and an HRP conjugate, TMB, 450 nm; 2 technical …. (In an ELISA, binding on a coated surface is turned into a signal by an enzyme label.)

This passage reports ELISA signal intensity, fold lower than the positive control results from article PMC12259950.

Chain of UniProt Q07011 (Q07011 24-255): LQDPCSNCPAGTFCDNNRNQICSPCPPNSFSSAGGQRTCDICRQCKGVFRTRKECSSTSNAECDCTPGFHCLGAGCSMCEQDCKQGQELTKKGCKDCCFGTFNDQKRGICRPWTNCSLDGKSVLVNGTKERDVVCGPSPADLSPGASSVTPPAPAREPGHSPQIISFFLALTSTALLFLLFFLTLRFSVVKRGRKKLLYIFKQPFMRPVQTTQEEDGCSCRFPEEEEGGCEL

B1: VHH_11 (VHH)
VHH: QVQLVESGGGLVQPGGSLRLSCAASGYSYYYYSMGWFRQAPGQGTEFVAAISSYYYSSYYADSVKGRFTISRDNSKNTLYLQMNSLRAEDTAVYYCAASYYSGSYYSGFDYWGQGTQVTVS
The molecule B1 yielded an ELISA signal intensity, fold lower than the positive control of 10 fold.
